Patent US6979572B1, “Compositions and methods for inhibiting inward-rectifier potassium channels” (Trustees of the University of Pennsylvania, priority 1998, dated 2005)
Where a chain is given by its changes, count along the chain named. Where two headings read alike, the source gives them in different places. Peptide text beside a SMILES is read from it.

What was measured:
GIRK1/4 channel = target: T1, GIRK1/4 channel (Rattus norvegicus, UniProt P48548+P63251); experiment: cell-based; conditions: for inhibition at 1 µM: read-out: inhibition of the GIRK1/4 channel
T1 construct: expressed in transfected cells; host or cells: Xenopus laevis oocytes (cRNA injection)
T1 sequence (P63251 1-501): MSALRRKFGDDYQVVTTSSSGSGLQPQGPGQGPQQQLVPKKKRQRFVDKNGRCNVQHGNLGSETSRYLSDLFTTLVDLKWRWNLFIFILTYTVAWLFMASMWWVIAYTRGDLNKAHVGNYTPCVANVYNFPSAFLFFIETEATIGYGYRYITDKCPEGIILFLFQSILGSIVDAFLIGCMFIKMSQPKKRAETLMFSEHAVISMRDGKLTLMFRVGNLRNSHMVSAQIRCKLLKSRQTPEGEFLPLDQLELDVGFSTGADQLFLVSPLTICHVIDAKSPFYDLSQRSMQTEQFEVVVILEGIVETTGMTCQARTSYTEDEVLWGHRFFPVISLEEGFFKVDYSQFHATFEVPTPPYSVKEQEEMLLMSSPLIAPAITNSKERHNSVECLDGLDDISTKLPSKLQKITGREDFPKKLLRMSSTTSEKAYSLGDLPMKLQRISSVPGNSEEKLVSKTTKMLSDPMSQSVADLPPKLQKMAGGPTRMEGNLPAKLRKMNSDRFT
T1 sequence (P48548 1-419): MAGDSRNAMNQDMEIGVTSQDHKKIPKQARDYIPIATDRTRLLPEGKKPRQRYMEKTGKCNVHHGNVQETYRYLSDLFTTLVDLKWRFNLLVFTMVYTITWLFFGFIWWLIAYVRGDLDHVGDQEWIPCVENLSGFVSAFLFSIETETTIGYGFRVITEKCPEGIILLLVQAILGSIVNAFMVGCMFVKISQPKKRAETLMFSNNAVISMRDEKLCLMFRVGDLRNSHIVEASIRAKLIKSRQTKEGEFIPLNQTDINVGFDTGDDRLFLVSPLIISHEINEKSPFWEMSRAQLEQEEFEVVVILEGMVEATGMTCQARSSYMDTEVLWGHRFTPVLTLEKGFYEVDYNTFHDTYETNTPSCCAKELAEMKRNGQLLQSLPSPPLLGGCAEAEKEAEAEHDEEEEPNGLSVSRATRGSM

[1] = target: T2, ROMK1 inward-rectifier K+ channel (wild-type), P35560
T2 chain: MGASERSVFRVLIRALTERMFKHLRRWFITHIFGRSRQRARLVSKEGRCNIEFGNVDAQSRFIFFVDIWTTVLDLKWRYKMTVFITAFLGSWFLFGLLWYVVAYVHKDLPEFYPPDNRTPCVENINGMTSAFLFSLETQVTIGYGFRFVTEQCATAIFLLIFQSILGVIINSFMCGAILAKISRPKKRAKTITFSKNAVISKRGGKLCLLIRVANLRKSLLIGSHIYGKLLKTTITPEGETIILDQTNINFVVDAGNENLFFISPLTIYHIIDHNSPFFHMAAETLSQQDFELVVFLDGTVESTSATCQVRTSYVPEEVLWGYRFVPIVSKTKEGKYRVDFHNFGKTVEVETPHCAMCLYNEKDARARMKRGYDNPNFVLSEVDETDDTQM

[2] = target: T3, ROMK1 I142L channel, P35560
T3 chain: T2 chain with I142L

[3] = target: T4, GIRK1/4 inward-rectifier K+ channel, P63251; experiment: cell-based or functional assay
T4 chain 1: T1 sequence (P63251 1-501)
T4 chain 2: T1 sequence (P48548 1-419)

[4] = target: T4, GIRK1/4 inward-rectifier K+ channel, …
[5] = target: T5, ROMK1 N171D channel, P35560
T5 chain: T2 chain with N171D

[6] = target: T6, ROMK1 N124A channel, P35560
T6 chain: T2 chain with N124A

[7] = target: T7, ROMK1 F146A channel, P35560
T7 chain: T2 chain with F146A

[8] = target: T8, ROMK1 G127S channel, P35560
T8 chain: T2 chain with G127S

[9] = target: T4, GIRK1/4 inward-rectifier K+ channel, …
[10] = target: T4, GIRK1/4 inward-rectifier K+ channel, …

## CC[C@H](C)[C@H](N)C(=O)N[C@@H](CCCCN)C(=O)N[C@H]1CSSC[C@@H]2NC(=O)[C@H]([C@@H](C)CC)NC(=O)[C@H](Cc3c[nH]cn3)NC(=O)[C@@H]3CCCN3C(=O)[C@H](CCCCN)NC(=O)[C@H]([C@@H](C)CC)NC(=O)[C@H](C(C)C)NC(=O)[C@H](Cc3c[nH]cn3)NC(=O)[C@H](CCCNC(=N)N)NC(=O)[C@H](CCCCN)NC(=O)[C@H](CSSC[C@@H](C(=O)NCC(=O)N[C@@H](CCCCN)C(=O)N[C@@H](CC(N)=O)C(N)=O)NC(=O)[C@H]([C@@H](C)CC)NC(=O)[C@H](CCCCN)NC(=O)[C@H](CCCNC(=N)N)NC2=O)NC(=O)[C@H](CC(N)=O)NC1=O [MCDP, mast cell degranulating peptide] (HELM PEPTIDE1{I.K.C.N.C.K.R.H.V.I.K.P.H.I.C.R.K.I.C.G.K.N.[am]}$PEPTIDE1,PEPTIDE1,3:R3-15:R3|PEPTIDE1,PEPTIDE1,5:R3-19:R3$$$V2.0; N-terminus and C-terminus assumed; bridges inferred)
GIRK1/4 channel
  effect on / sensitivity of the GIRK1/4 channel, in words: do not inhibit the activity
  inhibition at 1 µM: 20 to 30%

## CC(C)C[C@@H]1NC(=O)[C@H](C)NC(=O)[C@H]([C@@H](C)O)NC(=O)[C@H](CCC(=O)O)NC(=O)[C@@H]2CCCN2C(=O)[C@H](C)NC(=O)[C@H](CCCCN)NC(=O)[C@@H]2CSSC[C@@H](C(=O)N[C@@H](CCC(N)=O)C(=O)N[C@@H](CCC(N)=O)C(=O)N[C@@H](Cc3cnc[nH]3)C(N)=O)NC(=O)[C@H](CCCNC(=N)N)NC(=O)[C@H](CCCNC(=N)N)NC(=O)[C@H](C)NC(=O)[C@H](CSSC[C@H](N)C(=O)N[C@@H](CC(N)=O)C(=O)N2)NC1=O [apamin]
GIRK1/4 channel; GIRK1/4, read-out: affinity of the channel (Kd)
  Kd: > 1000 nM
GIRK1/4 channel; at 1 μM concentration
  inhibition at 1 µM: 20 to 30%

## ALCNCNRIIIPHMCWKKCGKK (modifications not checked) [synthetic tertiapin]
[1]
  Kd: 2 nM
[2]
  fold lower affinity than the wild-type ROMK1 channel: 8 fold
[3]
  inhibition of the GIRK1/4 current at 10 nM: 50%
[4]
  Kd: 8.6 nM
[5]
  Kd: 1.5 nM
[6]
  Kd: 13.9 nM
[7]
  Kd: 65.2 nM
[8]
  Kd: 2.7 nM
[9]
  Kd: 8 nM

## IKCNCKRHVIKPHICRKICGKN (modifications not checked) [mast cell degranulating peptide, P01499 28-49]
[10]
  Kd: > 1000 nM
[9]
  fold lower affinity than for tertiapin: > 100 fold

## ALCNCNRIIIPHMCWKKCGKK (modifications not checked) [native tertiapin]
[4]
  Kd: 8.2 nM

## CNCKAPETALCARRCQQH (modifications not checked) [apamin, P01500 28-45]
[10]
  Kd: > 1000 nM
[9]
  fold lower affinity than for tertiapin: > 100 fold
